Assay: yeast display, Sf9 membrane polyspecificity reagent, FACS + sequencing; frameworks hold sequencing errors
Procedure, shortened: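 Galactose-induced (36–48 hours) yeast carrying a synthetic nanobody display library were exposed to 10% biotinylated, detergent-solubilized Sf9 membrane reagent at 4 °C for 1 hour. FACS followed streptavidin microbead enrichment, using low and high (top ~1%) gates for expression (anti-HA) and reagent binding (streptavidin). Colony PCR, MiSeq 2 × 250 sequencing and CDR-length filtering followed. Labels for polyreactivity reflect the gate of origin.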

Q: For “QVQLVESGGGLVQAGGSLRLSCAASGLTFDVYTMGWYRQAPGKERELVAGITSGGSTDYADSVKGRFTISRDNAKNTVYLQMNSLKPEDTAVYYCNKPFPYYPDGPNGYDYWGQGTQVTVSS”, which “polyreactivity (PSR sort gate)” value is on record?
A: low polyreactivity

Q: Which “polyreactivity (PSR sort gate)” value does the source give for “QVQLVESGGGLVQAGGSLRLSCAASGLTFDWNTMGWYRQAPGKERELVATITYTGGSTYYADSVKGRFTISRDNAKNTVYLQMNSLKPEDTAVYFCAARRTRYRSYSRVRYTYDYWGQGTQVTVSS” here?
A: high polyreactivity

Q: For “QVQLVESGGGLVQAGGSLRLSCAASGLTFDWYTMGWYRQAPGKERELVATINSGGSTDYADSVKGRFTISRDNAKNTVYLQMNSLKPEDTAVYYCNAEYGYSGVGDDYWGQGTQVTVSS”, which “polyreactivity (PSR sort gate)” value is on record?
A: low polyreactivity

Q: With “QVQLVESGGGLVQAGGSLRLSCAASGLTFDYYAMGWSRQAPGKERELVAAITSSGGRTYYADSVKGRFTISRDNAKNTVYLQMNSLKPEDTAVYYCAKRDSYYNGVGYWGQGTQVTVSS” as the sequence, how does the “polyreactivity (PSR sort gate)” value read?
A: low polyreactivity

Q: Which “polyreactivity (PSR sort gate)” value does the source give for “QVQLVESGGGLVQAGGSLRLSCAASGLTFDYYAMGWYRQAPGKERELVAAIDWSGGSTYYADSVKGRFTISRDNAKNTVYLQMNSLKPEDTAVYYCATESDDSGMDYWGQGTQVTVSS” here?
A: low polyreactivity

Q: With “QVQLVESGGGLVQAGGSLRLSCAASGLTFDYYDRGGYRQAPGKERELVASITWRGSSTYYADSVKGRFTISRDNAKNTVYLQMNSLKPEDTAVYYCAARPQHFDLDLAYSGFDYWGQGTQVTVSS” as the sequence, how does the “polyreactivity (PSR sort gate)” value read?
A: high polyreactivity

Q: For “QVQLVESGGGLVQAGGSLRLSCAASGLTFDYYVMGWYRQAPGKERELVATISWSGDITYYADSVKGRFTISRDNAKNTVYLQMNSLKPEDTAVYYCAADYLDSTYGYVYGWDDYWGQGTQVTVSS”, which “polyreactivity (PSR sort gate)” value is on record?
A: low polyreactivity

Q: With “QVQLVESGGGLVQAGGSLRLSCAASGLTFEKYSMGWYRQAPGKERELVAAISQDGGSTYYADSVKGRFTISRDNAKNTVYLQMNSVKPEDTAVYYCAAEDPDSWLPWDLFDYWGQGTQVTVSS” as the sequence, how does the “polyreactivity (PSR sort gate)” value read?
A: low polyreactivity

Q: With “QVQLVESGGGLVQAGGSLRLSCAASGLTFERYAMGWNREAPGKERELVAAISGSGGSTYYADSVKGRFTISRDNAKNTVYLQMNSLTPEDTAVYYCAAYPTVWYDYWGQGTQVTVSS” as the sequence, how does the “polyreactivity (PSR sort gate)” value read?
A: high polyreactivity

Q: Which “polyreactivity (PSR sort gate)” value does the source give for “QVQLVESGGGLVQAGGSLRLSCAASGLTFFPNAMGWYRQAPGKERELVAAISNNGGRTYYADSVKGRFTISRDNAKNTVYLQMNSLKPEDTAVYYCAKYLSPGERHSYDYWGQGTQVTVSS” here?
A: high polyreactivity

Q: For “QVQLVESGGGLVQAGGSLRLSCAASGLTFGAYAMGWYRQAPGKEREFVAAITYSGGSTNYADSVKGRFTISRDNAKNTVYLQMNSLKPEDTAVYSCNAGYYSPWAFYPYDYWGQGTQVTVSS”, which “polyreactivity (PSR sort gate)” value is on record?
A: high polyreactivity

Q: With “QVQLVESGGGLVQAGGSLRLSCAASGLTFGGNAMGWYRQAPGKERELVAGISSSGNTNYADSVKGRFTISRDNAKNTVYLQMNSLKPEDTAVYYCAADENITYPVYDMYYWGQGTQVTVSS” as the sequence, how does the “polyreactivity (PSR sort gate)” value read?
A: low polyreactivity

Q: Which “polyreactivity (PSR sort gate)” value does the source give for “QVQLVESGGGLVQAGGSLRLSCAASGLTFGGYTMGWYRQAPGKERELVAAITSGGSTYYADSVKGRFTISRDNAKNTVYLQMNSLKPEDTAVYYCAARVRGWPVSKFGYWGQGTQVTVSS” here?
A: high polyreactivity

Q: Which “polyreactivity (PSR sort gate)” value does the source give for “QVQLVESGGGLVQAGGSLRLSCAASGLTFGHYDMGWYRQAPGKERELVAAITWSGGSTYYADSVKGRFTISRDNAKNTVYLQMNSLKPEDTAVYYCNADQPILYYSYRGVGYDYWGQGTQVTVSS” here?
A: high polyreactivity

Q: With “QVQLVESGGGLVQAGGSLRLSCAASGLTFGNYAMGWYRQTPGKERELVAAISKRGGTTYYADSVKGRFTISRDTAKNTVYLQMNSLKPEDTAVYYCSARDYSHPTDDNYWGPGTQVTVSS” as the sequence, how does the “polyreactivity (PSR sort gate)” value read?
A: high polyreactivity

Q: Which “polyreactivity (PSR sort gate)” value does the source give for “QVQLVESGGGLVQAGGSLRLSCAASGLTFGPNALGWYRQAPGQERELVAAITTGGGTNYADSVKGRFTISRDNAKNTVYLQMNSLKPEDTAVYYCAADALDSPDGYDYCGQGTQVTVSS” here?
A: low polyreactivity

Q: Which “polyreactivity (PSR sort gate)” value does the source give for “QVQLVESGGGLVQAGGSLRLSCAASGLTFGRNAMGWYRQAPGKERELVAAISRSGGRTSYADSVKGRFTISRDNAKNTVYLHMNSLKPEDTAVYYCAARSPIYRTTYYYWGQGTQVTVSS” here?
A: high polyreactivity

Q: With “QVQLVESGGGLVQAGGSLRLSCAASGLTFGRNAMGWYRQAPGKERELVAAITFNGGSTYYADSVKGRFTISRDNAKNTVYIQMNSLKPEDTAVYYCAAPYYVYWTYPYRVLSYYYWGQGTQVTVSS” as the sequence, how does the “polyreactivity (PSR sort gate)” value read?
A: high polyreactivity

Q: With “QVQLVESGGGLVQAGGSLRLSCAASGLTFGRNAMGWYRQSPGKERELVAAITFNGGSTYYADSVKGRFTISRDNAKNTVYFQMNSLKPEDTAVYYCAARLWRRSRFDYWGLGTQVTVSS” as the sequence, how does the “polyreactivity (PSR sort gate)” value read?
A: high polyreactivity

Q: With “QVQLVESGGGLVQAGGSLRLSCAASGLTFGRNVMGWYRQAPGKERELVAAISWRGDSTYYADSVKGRFTISRDNAKNTGYLQMNSLKPEDTAVYYCAVRYYRGSVASGSDYWGQGTQVTVSS” as the sequence, how does the “polyreactivity (PSR sort gate)” value read?
A: high polyreactivity

Q: With “QVQLVESGGGLVQAGGSLRLSCAASGLTFGRYAMGWYRQAPGKERELVAAITRSGGRTYYADSVKGRFTISRDNAKNTVYLQMNSLKPEDTAVYYCNKLSHLGAPGDPDDYWGQGTQVTVSS” as the sequence, how does the “polyreactivity (PSR sort gate)” value read?
A: high polyreactivity

Q: With “QVQLVESGGGLVQAGGSLRLSCAASGLTFGTNAMGWYRQAPGKERELVAAISTSSGSTYYADSVKGRFTISRDNAKKTVYLQMNSLKQEDTAVYYCAAVTVTKLSYYRYYYWGQGTQVTVSS” as the sequence, how does the “polyreactivity (PSR sort gate)” value read?
A: low polyreactivity

Q: For “QVQLVESGGGLVQAGGSLRLSCAASGLTFGTNSMGWYRQAPGKEMELVAAINRGGGSTYYADSVKGRVTISRDNAKNTVYLQMNSLKPEDTAVYYCAKSYSGSRTSDYWGQGTQVTVSS”, which “polyreactivity (PSR sort gate)” value is on record?
A: high polyreactivity

Q: Which “polyreactivity (PSR sort gate)” value does the source give for “QVQLVESGGGLVQAGGSLRLSCAASGLTFGTYAMGWYRQAPGKERELVAAISTSGVRTYYADSVKGRFTISRDNAKNTVYLQMNSLKPEDTAVYYCAARYNRAYSRDYWGQGTQVTVSS” here?
A: high polyreactivity

Q: Which “polyreactivity (PSR sort gate)” value does the source give for “QVQLVESGGGLVQAGGSLRLSCAASGLTFGVYAMGWYRQAPGQERELVAASTWGDGSTYYADSVKGRFTISRDNAKNTGYLQMNSLKPEDTAVYYCNAVTRRHKYYYWGQGTQVTVSS” here?
A: high polyreactivity

Q: With “QVQLVESGGGLVQAGGSLRLSCAASGLTFGYYAMGWYRQAPGKERELVAAITGGGGSTYYADSVKGRFTISRDNAKNTVYLQMNSLKPEDTAVYYCAKAVYFRRKGHWYQMEYWGQGTQVTVSS” as the sequence, how does the “polyreactivity (PSR sort gate)” value read?
A: low polyreactivity

Q: Which “polyreactivity (PSR sort gate)” value does the source give for “QVQLVESGGGLVQAGGSLRLSCAASGLTFGYYAMGWYRQAPGKVRELVAAISRGSSTYYADSVKGRFTISRDNAKNTVYLQMNSLIPEDTAVYYCNALFSYGYWRVRYIVTQYDYWGQGTQVTVSS” here?
A: high polyreactivity

Q: Which “polyreactivity (PSR sort gate)” value does the source give for “QVQLVESGGGLVQAGGSLRLSCAASGLTFGYYAMVWYRQAPGKERELVAAINRSGNTNYADSVKGRFTISRDNAKNTVYLQMNCLKPEDTAVYYCAKRIWSILSPYKSSYGYDYWGQGSQVTVSS” here?
A: low polyreactivity

Q: With “QVQLVESGGGLVQAGGSLRLSCAASGLTFHPYDMGWYRQAPGKERELVAAISSRGTSTYYADSVKGRFTISRDNAKNTVYLQMNSLKPEDTAVYYCAARHGPRAEAMYYWGQGSQVTVSS” as the sequence, how does the “polyreactivity (PSR sort gate)” value read?
A: high polyreactivity

Q: For “QVQLVESGGGLVQAGGSLRLSCAASGLTFHRYAMGWYRQAPGKERELVAANNYSGGRTYYADSVKGRFTISRDNAKNTVYLQMNSLKPEDTAVYYCAAPRASGYYWGQGTQVTVSS”, which “polyreactivity (PSR sort gate)” value is on record?
A: high polyreactivity

Q: Which “polyreactivity (PSR sort gate)” value does the source give for “QVQLVESGGGLVQAGGSLRLSCAASGLTFHTNTMGWYRQAPGKERELVAAITWRDDSTYYADSVKGRFTISRDYAMNTVYLQMNSLKPEDTAVFYCAARGGAYLWYHYDYWGQGTQVTVSS” here?
A: low polyreactivity

Q: For “QVQLVESGGGLVQAGGSLRLSCAASGLTFHYYGMGWYRQAPGKERELVAAISSGGSTYYADSVKGRFTISRDNAKNTVYLQMNSLKPEDTAVYYCAASLAYWYRGHYDYWGQGTQVTVSS”, which “polyreactivity (PSR sort gate)” value is on record?
A: low polyreactivity

Q: For “QVQLVESGGGLVQAGGSLRLSCAASGLTFIKYAMGWYRQAPGKEREFVADISKRGGTTYYADSVKGRFTISRDNAKNTVYLQMNSLKPEDTAFYYCAARQYLNVYYRYDYWGQGTQVTVSS”, which “polyreactivity (PSR sort gate)” value is on record?
A: high polyreactivity

Q: Which “polyreactivity (PSR sort gate)” value does the source give for “QVQLVESGGGLVQAGGSLRLSCAASGLTFIPNAMGWDRQAPGKERELVAAISGTGGSTYYADSVKGRFTISRDNAKNTVYLQMNSLKPEDTAVYYCAARRRYKSGYWGQGTQVTVSS” here?
A: high polyreactivity

Q: Which “polyreactivity (PSR sort gate)” value does the source give for “QVQLVESGGGLVQAGGSLRLSCAASGLTFIRYTRGWYRQAPGKDRELVAAINWSGDSTYYADSVKGRFTISLDNAKITVYLQMNSLKPEDTAVYYFNARRPRFRYDYWGQGTQVTVSW” here?
A: high polyreactivity

Q: Which “polyreactivity (PSR sort gate)” value does the source give for “QVQLVESGGGLVQAGGSLRLSCAASGLTFIYYAMGWYRQAPGKERELVAAISVSGGSTYYADSVKGRFTISRDNAKNTVYLQMNSLKQEDTAVYYCAADWFVHKPRYQYSFDYWGQGTQVTVSS” here?
A: low polyreactivity

Q: For “QVQLVESGGGLVQAGGSLRLSCAASGLTFKFNAMGWYRQAPGKERELVAAISFGGDDTYYADSVKGRFTISRDNAKNTVYLQMNSLKPEDTAVYYCAAEYDTWGYSGRDYWGQGTQVTVSS”, which “polyreactivity (PSR sort gate)” value is on record?
A: low polyreactivity

Q: Which “polyreactivity (PSR sort gate)” value does the source give for “QVQLVESGGGLVQAGGSLRLSCAASGLTFKSYAMGWYRQAPGKERELVAVISSSGGRTYYADSVKGRFTISRDNAKNTVYLQMNSLKPEDTAVYYCAADGSYGKWGGHAMYYWGQGTQVTVSS” here?
A: high polyreactivity

Q: Which “polyreactivity (PSR sort gate)” value does the source give for “QVQLVESGGGLVQAGGSLRLSCAASGLTFKSYAMGWYRQAPVKERELVAGISWSGDSTYYADSVKGRFTISRDNAKNTVYLQMNSLKPEDTAVYYCAAEYSYEYDYWGQGTQVTVSS” here?
A: high polyreactivity

Q: Which “polyreactivity (PSR sort gate)” value does the source give for “QVQLVESGGGLVQAGGSLRLSCAASGLTFKYYAMGWYRQAPGKERELVAAITATGGLTYYADSEKGRFTISRDNAKKTVYLQMNSLKPEDTAVYYCNARQHQTYYFYKHDYWGQGTQVTVSS” here?
A: high polyreactivity

Q: With “QVQLVESGGGLVQAGGSLRLSCAASGLTFKYYAMGWYRQATGKERELVARISRGGNTNYADSVKGRFTISRDNAKNTVYLQMNSLKPEDTAVYYCAATVRVYDYWGQGTQVTVSS” as the sequence, how does the “polyreactivity (PSR sort gate)” value read?
A: high polyreactivity

Q: Which “polyreactivity (PSR sort gate)” value does the source give for “QVQLVESGGGLVQAGGSLRLSCAASGLTFLRNGMGLYRQAPGKERELVASITRSGTRTYYADSVKGRFTISRDNAKNSVYLQMNSLKPEDTAVYYCAARAYVSHYGVSNFGFYYWVQGTQVTVSS” here?
A: high polyreactivity

Q: For “QVQLVESGGGLVQAGGSLRLSCAASGLTFNHYAMGWYRQAPGKERELVAAISSGSSTDYADSVKGRFTISRDNAKTTVYLQMHSLKPEDTAVYYCAVETPSTWFWGWGYDYDYWGQGTQVTVSS”, which “polyreactivity (PSR sort gate)” value is on record?
A: high polyreactivity
